Laboratory results taken from the supplement of paper PMC7877785.
± gives the uncertainty stated by the source.

Assay: self-splicing fitness, log relative to wild type (ln ratio); higher = more splicing; Tetrahymena group I intron in knt gene, E. coli kanamycin selection, DiMSum; sequences stand for … in CUCUCU…GGAGGGAAAAGUUAUCAGGCAUGCACCUGGUAGCUAGUCUUUAAACCAAUAGAUUGCAUCGGUUUAAAAGGCAAGACCGUCAAAUUGCGGGAAAGGGGUCAACAGCCGUUCAGUACCAAGUCUCAGGGGAAACUUUGAGAUGGCCUUGCAAAGGGUAUGGUAAUAAGCUGACGGACAUGGUCCUAACCACGCAGCCAAGUCCUAAGUCAACAGAUCUUCUGUUGAUAUGGAUGCAGUUCACAGACUAAAUGUCGGUCGGGGAAGAUGUAUUCUUCUCAUAAGAUAUAGUCGGACCUCUCCUUAAUGGGAGCUAGCGGAUGAAGUGAUGCAACACUGGAGCCGCUGGGAACUAAUUUGUAUGCGAAAGUAUAUUGAUUAGUUUUGGAGUACUCGUGGUCG
In short: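 Library with all eight P1ex-region intron nucleotides randomised, intron inside the knt kanamycin-resistance gene on pET-22b(+), in E. coli BL21(DE3). Cells grew overnight at 37°C or 30°C on LB agar with or without 25 μg/mL kanamycin (plus 100 μg/mL carbenicillin, 50 μM IPTG, 0.2% rhamnose), in six replicate transformations. Pooled colonies were amplicon-sequenced on Illumina HiSeq 2500. DiMSum fitness is the error-weighted combination of wild-type-normalised replicate fold changes, kanamycin versus none.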

Question: For GCCAAGCAAUAUUACGCGCC, which “self-splicing fitness (ln)” value (30 °C) is on record?
Answer: The value was -3.75 ± 0.27.

Question: And the “self-splicing fitness (ln)” value (37 °C)?
Answer: The value was -2.56 ± 0.32.

Question: Which results are given for AGCAAGCAAUAUUACGGCUC?
Answer: self-splicing fitness (ln) (30 °C): -4.6 ± 0.27; self-splicing fitness (ln) (37 °C): -3.41 ± 0.4

Question: Which “self-splicing fitness (ln)” value (30 °C) does the source give for AUCAAGCAAUAUUACGUGCU here?
Answer: Its value is -2.33 ± 0.088.

Question: And the “self-splicing fitness (ln)” value (37 °C)?
Answer: The value was -1.7 ± 0.11.

Question: With AUUCAGCAAUAUUACGCGUG as the sequence, how does the “self-splicing fitness (ln)” value (30 °C) read?
Answer: Its value is -1.25 ± 0.054.

Question: What about the “self-splicing fitness (ln)” value (37 °C) of the same sequence?
Answer: Its value is -0.218 ± 0.069.

Question: With CACAAGCAAUAUUACGUGCG as the sequence, how does the “self-splicing fitness (ln)” value (30 °C) read?
Answer: Its value is -2.32 ± 0.098.

Question: And the “self-splicing fitness (ln)” value (37 °C)?
Answer: Its value is -0.908 ± 0.082.

Question: What does the source list for ACUAAGCAAUAUUACGACGC?
Answer: self-splicing fitness (ln) (30 °C): -0.258 ± 0.11; self-splicing fitness (ln) (37 °C): -0.0244 ± 0.12

Question: What does the source list for CCAUAGCAAUAUUACGCUUG?
Answer: self-splicing fitness (ln) (30 °C): -2.3 ± 0.093; self-splicing fitness (ln) (37 °C): -1.35 ± 0.091

Question: Which “self-splicing fitness (ln)” value (30 °C) does the source give for GCCAAGCAAUAUUACGGUGC here?
Answer: Its value is -3.11 ± 0.24.

Question: What about the “self-splicing fitness (ln)” value (37 °C) of the same sequence?
Answer: The value was -2.14 ± 0.21.

Question: With CAUCAGCAAUAUUACGCUGU as the sequence, how does the “self-splicing fitness (ln)” value (30 °C) read?
Answer: The value was -3.65 ± 0.18.

Question: What about the “self-splicing fitness (ln)” value (37 °C) of the same sequence?
Answer: Its value is -1.84 ± 0.15.

Question: Which “self-splicing fitness (ln)” value (30 °C) does the source give for UCAAAGCAAUAUUACGACGG here?
Answer: The value was -0.0455 ± 0.082.

Question: What about the “self-splicing fitness (ln)” value (37 °C) of the same sequence?
Answer: Its value is 0.125 ± 0.12.

Question: Which “self-splicing fitness (ln)” value (30 °C) does the source give for UGGUAGCAAUAUUACGAACG here?
Answer: The value was -0.892 ± 0.19.

Question: What about the “self-splicing fitness (ln)” value (37 °C) of the same sequence?
Answer: The value was 0.374 ± 0.22.

Question: Which “self-splicing fitness (ln)” value (30 °C) does the source give for GUGCAGCAAUAUUACGUCAU here?
Answer: Its value is -2.23 ± 0.089.

Question: What about the “self-splicing fitness (ln)” value (37 °C) of the same sequence?
Answer: Its value is -1.95 ± 0.1.

Question: Which “self-splicing fitness (ln)” value (30 °C) does the source give for UGUGAGCAAUAUUACGCGAG here?
Answer: The value was -2.69 ± 0.22.

Question: And the “self-splicing fitness (ln)” value (37 °C)?
Answer: The value was -1.63 ± 0.23.

Question: With GGGAAGCAAUAUUACGCUAU as the sequence, how does the “self-splicing fitness (ln)” value (30 °C) read?
Answer: Its value is -2.75 ± 0.19.

Question: What about the “self-splicing fitness (ln)” value (37 °C) of the same sequence?
Answer: Its value is -0.951 ± 0.14.

Question: With CAAAAGCAAUAUUACGGGCU as the sequence, how does the “self-splicing fitness (ln)” value (30 °C) read?
Answer: Its value is -3.65 ± 0.23.

Question: And the “self-splicing fitness (ln)” value (37 °C)?
Answer: Its value is -2.57 ± 0.21.

Question: With UAGCAGCAAUAUUACGACUG as the sequence, how does the “self-splicing fitness (ln)” value (30 °C) read?
Answer: Its value is -0.817 ± 0.14.

Question: What about the “self-splicing fitness (ln)” value (37 °C) of the same sequence?
Answer: Its value is -0.556 ± 0.18.

Question: What does the source list for GGGCAGCAAUAUUACGGUGC?
Answer: self-splicing fitness (ln) (30 °C): -2.21 ± 0.13; self-splicing fitness (ln) (37 °C): -1.8 ± 0.089

Question: Which results are given for CAUCAGCAAUAUUACGUUCU?
Answer: self-splicing fitness (ln) (30 °C): -3.82 ± 0.2; self-splicing fitness (ln) (37 °C): -3.32 ± 0.23

Question: For UGUUAGCAAUAUUACGGUGA, which “self-splicing fitness (ln)” value (30 °C) is on record?
Answer: Its value is -1.51 ± 0.18.

Question: And the “self-splicing fitness (ln)” value (37 °C)?
Answer: The value was -0.192 ± 0.19.

Question: With UGAUAGCAAUAUUACGAUCG as the sequence, how does the “self-splicing fitness (ln)” value (30 °C) read?
Answer: Its value is -0.236 ± 0.14.

Question: And the “self-splicing fitness (ln)” value (37 °C)?
Answer: The value was -0.942 ± 0.15.

Question: For GCCGAGCAAUAUUACGCUGA, which “self-splicing fitness (ln)” value (30 °C) is on record?
Answer: The value was -1.88 ± 0.17.

Question: And the “self-splicing fitness (ln)” value (37 °C)?
Answer: Its value is -0.952 ± 0.13.

Question: What does the source list for UCGCAGCAAUAUUACGGGGA?
Answer: self-splicing fitness (ln) (30 °C): -1.31 ± 0.12; self-splicing fitness (ln) (37 °C): -1.11 ± 0.1

Question: For AUUAAGCAAUAUUACGUGCA, which “self-splicing fitness (ln)” value (30 °C) is on record?
Answer: Its value is -1.03 ± 0.089.

Question: What about the “self-splicing fitness (ln)” value (37 °C) of the same sequence?
Answer: The value was -0.282 ± 0.11.

Question: For AGGAAGCAAUAUUACGACUA, which “self-splicing fitness (ln)” value (30 °C) is on record?
Answer: The value was 0.0184 ± 0.094.

Question: And the “self-splicing fitness (ln)” value (37 °C)?
Answer: Its value is -0.351 ± 0.12.

Question: With GGGAAGCAAUAUUACGAUUG as the sequence, how does the “self-splicing fitness (ln)” value (30 °C) read?
Answer: The value was -3.59 ± 0.21.

Question: What about the “self-splicing fitness (ln)” value (37 °C) of the same sequence?
Answer: The value was -3.25 ± 0.3.

Question: For UCGCAGCAAUAUUACGUUGC, which “self-splicing fitness (ln)” value (37 °C) is on record?
Answer: Its value is -4.15 ± 0.42.

Question: With GGAUAGCAAUAUUACGGCGU as the sequence, how does the “self-splicing fitness (ln)” value (30 °C) read?
Answer: Its value is 0.322 ± 0.093.

Question: And the “self-splicing fitness (ln)” value (37 °C)?
Answer: Its value is 0.626 ± 0.1.

Question: Which results are given for ACUGAGCAAUAUUACGUUCC?
Answer: self-splicing fitness (ln) (30 °C): -3.65 ± 0.35; self-splicing fitness (ln) (37 °C): -2.52 ± 0.24

Question: Which “self-splicing fitness (ln)” value (30 °C) does the source give for CUAUAGCAAUAUUACGACGA here?
Answer: The value was -1.82 ± 0.19.

Question: What about the “self-splicing fitness (ln)” value (37 °C) of the same sequence?
Answer: Its value is -0.725 ± 0.13.

Question: With UGCCAGCAAUAUUACGACAA as the sequence, how does the “self-splicing fitness (ln)” value (30 °C) read?
Answer: Its value is -1.19 ± 0.17.

Question: What about the “self-splicing fitness (ln)” value (37 °C) of the same sequence?
Answer: The value was 0.212 ± 0.13.

Question: For CUGAAGCAAUAUUACGUCUA, which “self-splicing fitness (ln)” value (30 °C) is on record?
Answer: Its value is -0.846 ± 0.077.

Question: And the “self-splicing fitness (ln)” value (37 °C)?
Answer: Its value is -0.487 ± 0.1.

Question: Which “self-splicing fitness (ln)” value (30 °C) does the source give for CUGUAGCAAUAUUACGUACG here?
Answer: The value was -1.43 ± 0.21.

Question: And the “self-splicing fitness (ln)” value (37 °C)?
Answer: Its value is -1.05 ± 0.19.

Question: Which “self-splicing fitness (ln)” value (30 °C) does the source give for GCCAAGCAAUAUUACGGCUU here?
Answer: The value was -5.36 ± 0.34.

Question: What about the “self-splicing fitness (ln)” value (37 °C) of the same sequence?
Answer: The value was -3.31 ± 0.19.

Question: With UCAAAGCAAUAUUACGAGCA as the sequence, how does the “self-splicing fitness (ln)” value (30 °C) read?
Answer: Its value is -1.07 ± 0.15.

Question: What about the “self-splicing fitness (ln)” value (37 °C) of the same sequence?
Answer: Its value is -0.556 ± 0.15.

Question: Which “self-splicing fitness (ln)” value (30 °C) does the source give for UGGUAGCAAUAUUACGACGG here?
Answer: Its value is -1.49 ± 0.11.

Question: What about the “self-splicing fitness (ln)” value (37 °C) of the same sequence?
Answer: Its value is -0.695 ± 0.13.

Question: With AUUUAGCAAUAUUACGCGAU as the sequence, how does the “self-splicing fitness (ln)” value (30 °C) read?
Answer: Its value is -3.22 ± 0.33.

Question: What about the “self-splicing fitness (ln)” value (37 °C) of the same sequence?
Answer: Its value is -2.49 ± 0.48.

Question: With UACCAGCAAUAUUACGGUUU as the sequence, how does the “self-splicing fitness (ln)” value (30 °C) read?
Answer: The value was -0.896 ± 0.056.

Question: And the “self-splicing fitness (ln)” value (37 °C)?
Answer: The value was -0.463 ± 0.065.
